Reference: the nanobody polyreactivity screen of Harvey et al. (2022)

Assay: yeast display, Sf9 membrane polyspecificity reagent, FACS + sequencing; frameworks hold sequencing errors
Procedure, shortened: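 Using colony PCR, genes from sorted yeast display clones were amplified, then sequenced on MiSeq at 2 × 250 and filtered by CDR length. The clones had been stained with 10% biotinylated, detergent-solubilized Sf9 membrane reagent for 1 hour at 4 °C and sorted by FACS into low and high (top ~1%) gates on anti-HA and streptavidin fluorescence. Polyreactivity labels come from the gate of origin.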

In the case of “QVQLVESGGGLVQAGGSLRLSCAASGRIFLRYAMGWYRQAPGKERELVAVITWSGGSTYYADSVKGRFTISRDNAKNTVYLQMNSLKPEDTAVYYCAADWYPTGFYYWGQGTQVTVSS”, the “polyreactivity (PSR sort gate)” value is reported as “low polyreactivity”.
With “QVQLVESGGGLVQAGGSLRLSCAASGRTIRRNAMGWYRQAPGKERELVAGISGSGTITYADSVKGRFTISRDNAKNTVYLQMNSLKPEDTAVYYCAARRKSFYTFYYWGQGTQVTVSS” the “polyreactivity (PSR sort gate)” value was “high polyreactivity”.
In the case of “QVQLVESGGGLVQAGGSLRLSCAASGSTFDYNTMGWYRQAPGKERELVADITLRGASTYYADSVKGRFTISRDNAKNTVYLLMNSLKPEDTAVYYCNADYYWGTYANFDYWGQGTQVTVSS”, the “polyreactivity (PSR sort gate)” value is reported as “low polyreactivity”.
With “QVQLVESGGGLVQAGGSLRLSCADSGVIFVGYAMGGYRQAHGKERELVASIDGRVGSTYYADSVKGRFTISRDNAKITVYLQMNSLKPEDTAVYYCAAGGRAVRIYWGYYRTSYDYWGQGTQVTVSS” the “polyreactivity (PSR sort gate)” value was “low polyreactivity”.
For “QVQLVESGGGLVQAGGSLRLSCAASGSIFAYYAMGWYRQPPGKERELVAAISYSVDGTYYADSVKGRFTISRDNAYNTVYLQMNSLKPEDTAVYYCATQIYPLDFYQGDWNDYWGQGTQVTVSS”, the “polyreactivity (PSR sort gate)” value was “low polyreactivity”.
For “QVQLVESGGGLVQAGGRLRLSCAASGINFSHKVMGWYRQAPGKERELVAAITYSGGSTYYADSVKGRFTSSRDNAKNTVYLQMNSLKPEDTAVYYCNALGVSRRDYDYWGQGTQVTVSS”, the “polyreactivity (PSR sort gate)” value was “low polyreactivity”.
For “QVQLVESGGGLVQAGGSLRLSCAGSGSTFLYYAMGWYRQAPGKERELVAVITYSDGGTYYADSVKGRFTISRDNAKNTVYLEMNSLKPEDTAVYYCAKDYRAYAGHYTWTWHEYGYWGQGTQVTVSS”, the “polyreactivity (PSR sort gate)” value was “low polyreactivity”.
In the case of “QVQLVESGGGLVQAGGSLRLICAASGRTFVYYAMGWYRQAPGKERELLAANSLSGSTYYAYSVKGRVTISRDNAKNTVDLHMYSLKPDDTAVYYCARPGGPDRTSSPYPYPYGYWGQGTQVTVSS”, the “polyreactivity (PSR sort gate)” value is reported as “low polyreactivity”.
In the case of “QVQLVESGGGLVQAGGSLRLICAASGITTRTYAMGWYRQAPGKDRELVAAISDSGDRTYYADSVKGRFTISRDNAKNTVYLQMNRLKPEDTAVYYCAVDAPGPRCEFWGQGTKVTVSS”, the “polyreactivity (PSR sort gate)” value is reported as “low polyreactivity”.
With “QVQLVESGGVLVQAGGSLRLSCAASGFTFWLYAMGWYRQAPGKERELVAAISSGGGSTYYADSVKGRFTNSRDNAKNTVYLQMNSLKPEDTAVYYCNRYYYYGYDWGQGTQVTVSS” the “polyreactivity (PSR sort gate)” value was “high polyreactivity”.
In the case of “QVQLVESGGGLVQAGGSLRLSCAASGRTFGTNAMGRYRKAPGKERELVAAITWRGGSTSYADSEKGRFTISRDNAKNSVYFQMNSLKPEDPAVYYCAVRLRYPGNTFYYLGQGTQVTVSS”, the “polyreactivity (PSR sort gate)” value is reported as “high polyreactivity”.
With “QVQLVESGGCLVQAGGSLRLSCAASGRTFPYNVMGWYRQAPGKERELDAGITGSGDSTFYADSVKGRFTISRDNAKNTFYLQMNSLNPDDTSVYYCAARYRTLNDGYIRNYWGQGTQVTVSS” the “polyreactivity (PSR sort gate)” value was “low polyreactivity”.
In the case of “QVQLVESGGGLVQAGGSLRLSCAASGNTFYGYSMGWYRQAPGKERELVASITLSGDSTYYADSVKGRFTISRDNAKNTVYLQMNSLKPEDTAVYYCARRSRESYEYDYWGQGTQVTVSS”, the “polyreactivity (PSR sort gate)” value is reported as “low polyreactivity”.
With “QVQLVESGGGLVQAGGSLRLSCAASGRILGFNVMGWYRQAPGKERELVAAITTSGGSTYYADSVKGRFTISRDNAKNTVYLQMNSLKPEDTAVYYCAARYRRFRFTHYDYWGQGTQVTVSS” the “polyreactivity (PSR sort gate)” value was “high polyreactivity”.
In the case of “QVQLVESGGGLVQAGGSLRLSCAASGITFYEYAMGWYRQAPGKERELVATITSGGNTNYADSVKGRFTISRDNAKNTVYLQMNSLKPEDTAVYFCATRPYGYSCNRPYDYWGQGTQVTVSS”, the “polyreactivity (PSR sort gate)” value is reported as “low polyreactivity”.
For “QVQLVESGGGLVQAGGSLRLSCAASGFTFTQYAMGWYRPAPGKECELVAAISRSGGSTYYADSVKGRFTISRDNAKNTVYLQMTSLKPEDTPVYYCAADWRFRYDYWGQGTQVTVSS”, the “polyreactivity (PSR sort gate)” value was “high polyreactivity”.
For “QVQLVESGGGLVQAGGSLRLSCAASGIIFSPYAMGWYRQAPGKERELVAAITNNGGGTYYADSVKGRFTISRDNAKNTVYLQMNSLKPEDTAVYYCAAEGFLEYPYYIWYDYWGQGTQVTVSS”, the “polyreactivity (PSR sort gate)” value was “high polyreactivity”.
In the case of “QVQLVESGGGLDQAGGSLRLSCAASGRTFWNYAMGWYRQAPGKERELVAVIRFSDGSTYYADSVKGRFTISRDNAKNTVYLQMNSLKPEDTAVYYCAAKGPRRWASGFDYWGQGTQVTVSS”, the “polyreactivity (PSR sort gate)” value is reported as “low polyreactivity”.
In the case of “QVQLVESGGGLVQAGGSLRLSCAASGFIFLGYAMGWYRQAPGKERELVAAISSDSDTNYADSVKGRFTISRDNAKNTVFLQMNSLKPEDTAVYYCNADIDSYREMDYWGQGTLVTVSS”, the “polyreactivity (PSR sort gate)” value is reported as “low polyreactivity”.
For “QVQLVESGGGLVQAGGSLRLTCAASGITFTSYVMGWYRQAPGKERELVAAIRWSGGRTYYADSVKGRFTISRDNAKNSVYLQMNSLKPEDTAVYYCNRVTRSHVDYWGQGTQVTVSS”, the “polyreactivity (PSR sort gate)” value was “high polyreactivity”.
In the case of “QVQLVESGGGIVQAGGSLRLSCAASGYIFKYYAMGWYRQAPGKERELVAAITGGVSTNYADSVKGRFTISRDNAKNTVYLQMNSLKPEDTAVYYCAAAITPSDTGSEYDYWGQGTQVTVSS”, the “polyreactivity (PSR sort gate)” value is reported as “low polyreactivity”.
In the case of “QVQLVESGGGLVQAGGSLRLSCAASGIIFRVYAMGWYRQAPGKERELFATITWSGGSTFYADSLKGRFTISRDNAKNTVYLQLNSLKPEDTAVYYCAKRGYVRSGLGRPYADDYWGQCTQVTVSS”, the “polyreactivity (PSR sort gate)” value is reported as “low polyreactivity”.
In the case of “QVQLVESGGGLVQAGGSLRISCAASGRIFTRNAMGWYTQAPGNETELVAAITSGGSTNYADSVKGRFTISRDNAKNTVYLQMNSLKPEDTAVYFCYAVYYPYRIWGRVRPSYGYWGQGTQVTVSS”, the “polyreactivity (PSR sort gate)” value is reported as “high polyreactivity”.
In the case of “QVQLVESGGGLVQAGGSLRLSCAASGLTFSRYAMGWYRQATGKERELVAAITSNGGSTYYADSVKGRFTISRDNAKNTVYLQMNSLKPDDTAVYYCATGYPIDLGREFDYWGQGIQVTVSS”, the “polyreactivity (PSR sort gate)” value is reported as “high polyreactivity”.
For “QVQLVESGGGLVQAGGSLRLSCAASGRTFHSNAMGWYRQAPGNDRELVASSRRGSRTYYADSVKGRFTISRDNAKNTVSLQLTSLKPEDTAVYYCAAAQVGYYVGSVTYGYWGQATQVTVSS”, the “polyreactivity (PSR sort gate)” value was “high polyreactivity”.
With “QVQLVESGGGLVQAGGSLRLSCAASGRIFLVYAMGWYRQAPGKERELVATIRSGGRTNYADSVKGRFTISRDNAKNAVYLQMNSLKPEDTAVYYCNAPPYTSSDQDPAGDYEYWGQGTQVTVSS” the “polyreactivity (PSR sort gate)” value was “high polyreactivity”.
In the case of “QVQLVESGGGLVQAGGSLRLSCAASGRIFYHNTMGWYRQAPGKERELVAAIRSGSSSYYADSVKGRFTISRDNAKNTVYLQMNSLKPEDTAVYYCNARPWYSWGVDYDYWGQGTQVTVSS”, the “polyreactivity (PSR sort gate)” value is reported as “low polyreactivity”.
With “QVQLVESGGGLVQAGGSLRLSCAASGFTFYYNAMGWYRQAPGKERELVAAIYSDGSTYYADSVKGRFTISRDNAKNTFYLQMNSLKAEDTAVYYCAVRKAYQYGFYYWGQGTQVTVSS” the “polyreactivity (PSR sort gate)” value was “low polyreactivity”.
With “QVQLVESGGGLVQAGGSLRLTCAASGRTLAWYTMGWYRQAPGKERELVAAISGSGGSTYYADSVKGRFTISRDNAKNTVYFQINRLKPEDTAVYYCSLRVDSYYGHTRYYYWGQGTQVTLSS” the “polyreactivity (PSR sort gate)” value was “high polyreactivity”.
For “QVQLVESGGGLVQAGGSLRLSCAASGRTIYGYAMGWYRQAPGKERELVARIRSGGSTNYADSVKGRFTISRDNAKNTVYLQMNSLKPEDTAVYYCAARPGAAGYKYYYWGQGTQVTVSS”, the “polyreactivity (PSR sort gate)” value was “high polyreactivity”.
In the case of “QLQLHESGGGLVQAGGSLRLSCAASGTISYAGPMGWYRQAPGKEREFVAGIGVGSNTNYADSVKGRYTIIRDNAKNTVYLQMNSLKPEDTAVYYCAVGGYAPLGRPYWGQGTQVTVSS”, the “polyreactivity (PSR sort gate)” value is reported as “low polyreactivity”.
With “QVQLVESGGGLVQAGGSLRLSCAASGGIFSSYAMGGYRQAPGKERELVASISRRGTSTYYADSVKGRFTISRDNAKNTVYLQMNSLKPEDTAVYYCAAGTKYTSAVHFYYWGQGTQVTVSS” the “polyreactivity (PSR sort gate)” value was “high polyreactivity”.
With “QVQLVESGGGLVQAGGSLRLSCAASGFTLVGYAMGWYRQAPGKERELVAAISSGGRTKYADSVKGRFTFSRDNAKNTVYLQMNSLKPEDTAVYYCKAVFTRGVTQYDHYYWGQGTQVTVSS” the “polyreactivity (PSR sort gate)” value was “high polyreactivity”.
For “QVQLVESGGGLVQAGGSLRLSCAASGGTFGPYAMGWYSQAPGKERELVATIRSSGGRTYYADSVTGRFTISRDNAKNTVYFQMNSLKPEDTAVYYCAADNLRQFGEYDYWGQGTQVTVSS”, the “polyreactivity (PSR sort gate)” value was “low polyreactivity”.
In the case of “QVQLVESGGGLVQAGGSLRLSCASSGFIFSSYAMGWYRQAPGKERELVAAISLRSTTTYYADSVKGRFTISRDNAKNSVYLQMNSLKPEDTAVDYCAKGGSRDRYGYWGQGTQVTVSS”, the “polyreactivity (PSR sort gate)” value is reported as “high polyreactivity”.
In the case of “QVQLVESGGGLVQAGGSLRLSCAASGSIFYDNAMGWYRQAPGKERELVAAITSTGGSTYYADSVKGRFTISRDNAKNTVYLQMNSLKPEDTAVYYCNTPTYLYWGFYTYDYWGQGTQVTVSS”, the “polyreactivity (PSR sort gate)” value is reported as “low polyreactivity”.
For “QVQLVESGGGLVQAGGSLRLSGAASGRTCGTNAMGWSRQAHGKERELVAAISSSGGSTYYADSVKGRFTISRDNAKNTVYLQMISQKPEDTAVYYCAQGWHRGVGFGYWGQGTQVTVSS”, the “polyreactivity (PSR sort gate)” value was “high polyreactivity”.
For “QVQLVESGGGLVQAGGSLRLSCAASGSIFVSNAMGWYRQAPGKERELVAAITSSGSTDYADSVKGRFTISRDNAKNTVYLQMNSLKPDDTAVYYCAAESDHTFFLWSLNDSWGQGTQVTVSS”, the “polyreactivity (PSR sort gate)” value was “low polyreactivity”.
For “QVQLVESGGGIVQAGGSLRLSCAASGFTIPRYAMGWYRQAPGKERELVAAITVGGGRTYYADSVKGRFTISRDNAKNTVYLQMNSLKPEDTAVYYCAADSHASTYDYWGQGTQVTVSS”, the “polyreactivity (PSR sort gate)” value was “low polyreactivity”.
For “QVQRVESGGGLVQAGASLRLSCAASGSTFDPYAKGWYRQAPGKERELVAAISGRGGSTYYADSVKGRFTISRDNAKNTLYLQMNSLKPEDTADYYCNAEGEYRRDRYDYWGQGTQVTVSS”, the “polyreactivity (PSR sort gate)” value was “low polyreactivity”.
With “QVQLVESGGGLVQAGGSLRLTCAASGGTFQYYSMGWYRQAPGKERELVAAITTSGGSTYYADSVKGRFTISRDNAKNTDYLQMNSLKPEDTAVYYCAAGRGYRGYVRYYYWGQGTQVTVSS” the “polyreactivity (PSR sort gate)” value was “high polyreactivity”.
For “QVQLVESGGGLVQAGGSLRLSCAASGLIFVSYGMGWYRQAPGKERELVAAITFSGGSTYYADSVKGRFTISRDNAKNTVYLQMNSLKPEDTAVYYCNADYYPGYDYWGQGTQVTVSS”, the “polyreactivity (PSR sort gate)” value was “high polyreactivity”.
In the case of “QVQLVESGGGLVQAGGSLRLSCAASGLISDRNAMGWYRQAPGKERELVASIRSGGSTYYADSVKGRFTISRDNAKNTVYLQMNSQKPEDTAVYYCAAGGGHTPVSYYLVPYMDYWGQGTQVTVSS”, the “polyreactivity (PSR sort gate)” value is reported as “low polyreactivity”.
